According to paper PMC2180961 (The Journal of Experimental Medicine, 1977):

How the values were obtained:
[1] = test system: CCOC(=O)[C@H](Cc1ccc(O)cc1)NC(=O)c1ccccc1; experiment: purified protein; details: 25 C, same experiment as chymase, unit M not printed beside this value
[2] = target: T1, rat mast cell chymase (Rattus norvegicus, UniProt P09650); experiment: […]-casein proteolysis assay; assay type: biochemical; details: read-out: % inhibition at 300 mM
T1 sequence (P09650 21-260): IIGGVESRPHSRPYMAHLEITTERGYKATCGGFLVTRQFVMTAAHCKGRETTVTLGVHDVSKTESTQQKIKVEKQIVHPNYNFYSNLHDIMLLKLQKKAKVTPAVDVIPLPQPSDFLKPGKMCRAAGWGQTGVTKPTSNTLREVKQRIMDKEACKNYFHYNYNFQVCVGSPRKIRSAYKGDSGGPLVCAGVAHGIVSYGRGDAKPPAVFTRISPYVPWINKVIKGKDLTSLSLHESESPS

[3] = target: T1, rat mast cell chymase; experiment: […]-casein proteolysis assay; assay type: biochemical
[4] = substrate: CCOC(=O)[C@H](Cc1ccc(O)cc1)NC(=O)c1ccccc1; experiment: purified protein; assay type: biochemical, Rattus norvegicus; details: 25 C, abstract and summary print 1.5 x 10^-3 M (apparent Km)

alpha-chymotrypsin (Bos taurus) showed a Km [1] of 1170 µM.

`NCCc1c[nH]cn1` [histamine] showed an inhibition at 300000 µM [2] of 20%.

In the case of `NCCc1c[nH]c2ccc(O)cc12` [5-HT], the IC50 [3] is reported as 3 mM.

B1: rat mast cell chymase (Rattus norvegicus) (protein)
chain: T1 sequence (P09650 21-260)
B1 gave a Km [4] of 1560 µM.
